Source: article PMC12079402 (Protein Science : A Publication of the Protein Society, 2025)

B1: TAZ2 domain of HAC1, HAC1-TAZ2(1574-1697) (domain or fragment, Arabidopsis, UniProt Q9C5X9 1574-1697, looked up)
chain: NAQNKEARQLRVLQLRKMLDLLVHASQCRSAHCQYPNCRKVKGLFRHGINCKVRASGGCVLCKKMWYLLQLHARACKESECHVPRCRDLKEHLRRLQQQSDSRRRAAVMEMMRQRAAEVAGGSG
B2: ACID domain of MEDIATOR subunit 25 (MED25), MED25-ACID(532-680) (domain or fragment, Arabidopsis, UniProt Q7XYY2 532-680, looked up)
chain: SNSSAPNMQLSQPSSGAMQTSQSKYVKVWEGNLSGQRQGQPVLITRLEGYRSASASDSLAANWPPTMQIVRLISQDHMNNKQYVGKADFLVFRAMSQHGFLGQLQDKKLCAVIQLPSQTLLLSVSDKACRLIGMLFPGDMVVFKPQIPN
B3: RST domain of Radical-Induced Cell Death1 (RCD1), RCD1-RST(499-572) (domain or fragment, Arabidopsis, UniProt Q8RY59 499-572, looked up)
chain: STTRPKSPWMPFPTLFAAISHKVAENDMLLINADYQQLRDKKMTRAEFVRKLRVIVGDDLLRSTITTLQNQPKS
B4: ANAC046(172-222, S175W), fragment containing AD1/M1-2 (domain or fragment, Arabidopsis thaliana, UniProt Q9SQQ6 172-222, looked up)
chain: NAPWTTITTTKQLSRIDSLDNIDHLLDFSSLPPLIDPGFLGQPGPSFSGAR
B5: KIX domain of HAC1, HAC1-KIX(43-134) (domain or fragment, Arabidopsis, UniProt Q9C5X9 43-134, looked up)
chain: GPSRVSPVDNDILKLRQAMRIRIFNILQQKQPSPADEASKAKYMDVARRLEEGLFKIANTKEDYVNPSTLEPRLASLIKGRQLNNYNQRHAN
B6: TAZ1 domain of HAC1, HAC1-TAZ1(626-724) (domain or fragment, Arabidopsis, UniProt Q9C5X9 626-724, looked up)
chain: GNGNRDPRFKNQQKWLLFLRHARHCKAPEGKCPDRNCVTVQKLWKHMDSCAAPQCSYPRCLPTKTLINHHRSCKEPNCPVCIPVKAYLQQQANARSLAR
B7: ANAC046(300-338), fragment containing AD2/M5 with its context (domain or fragment, Arabidopsis thaliana, UniProt Q9SQQ6 300-338, looked up)
chain: ATPEISSYPMMMNPAMMDGSKSACDGLDDLIFWEDLYTS

Key:
[1] = biological target: T1, ANAC046 intrinsically disordered region, ANAC046(172-338) (Arabidopsis thaliana, UniProt Q9SQQ6 172-338); experiment: NMR titration
T1 sequence (looked up): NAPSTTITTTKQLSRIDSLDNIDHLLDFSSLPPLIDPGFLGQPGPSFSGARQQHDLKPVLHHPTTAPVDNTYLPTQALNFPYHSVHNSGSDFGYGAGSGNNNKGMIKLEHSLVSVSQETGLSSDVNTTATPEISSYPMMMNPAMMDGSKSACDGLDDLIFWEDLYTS

[2] = biological target: T1, ANAC046 intrinsically disordered …; experiment: ITC
[3] = biological target: B6; experiment: NMR titration
[4] = biological target: B3; experiment: NMR titration
[5] = biological target: B7; experiment: ITC
[6] = biological target: T1, ANAC046 intrinsically disordered …; experiment: ITC; remark: listed apart in the source
[7] = biological target: B6; experiment: ITC
[8] = biological target: B3; experiment: ITC

B1: binds [1].

B2: binds [1].

Binder B3 has a Kd [2] of 0.2 µM and a dH [2] of -5.5 kcal/mol.

B4 gave a Kd [3] of 112 µM and a Kd [4] of 148 µM.

B5: binds [1].

B6 was tested, and the dH [5] was -5.98 kcal/mol, the “stoichiometry N” value [5] was 0.97 and the “dH, site AD1/M1-2 (two-site fit)” value [6] was -15.5 kcal/mol. For the same binder, the “dH, site AD2/M5 (two-site fit)” value [6] was -5.98 kcal/mol.

Work on B7 yielded a Kd [7] of 6 µM, a Kd [8] of 0.12 µM and a dH [8] of -7.41 kcal/mol. The “stoichiometry N” value [8] was 0.8.
